Where a chain is given by its changes, count along the chain named. Numbers in names are those of the source.
B1: Rvb1 (enzyme)
chain: MVAISEVKENPGVNSSNSGAVTRTAAHTHIKGLGLDESGVAKRVEGGFVGQIEAREACGVIVDLIKAKKMSGRAILLAGGPSTGKTALALAISQELGPKVPFCPLVGSELYSVEVKKTETLMENFRRAIGLRIKETKEVYEGEVTELTPEDAENPLGGYGKTISHVIVGLKSAKGTKTLRLDPTIYESIQREKVSIGDVIYIEANTGAVKRVGRSDAYATEFDLETEEYVPLPKGEVHKKKEIVQDVTLHDLDVANARPQGGQDVISMMGQLLKPKKTEITEKLRQEVNKVVAKYIDQGVAELIPGVLFIDEVNMLDIEIFTYLNKALESNIAPVVVLASNRGMTTVRGTEDVISPHGVPPDLIDRLLIVRTLPYDKDEIRTIIERRATVERLQVESSALDLLATMGTETSLRYALQLLAPCGILAQTSNRKEIVVNDVNEAKLLFLDAKRSTKILETSANYL
B2: Rvb1-R366A (enzyme)
chain: B1 chain with R366A

How the values were obtained:
Rvb2 = Rvb2 (S. cerevisiae, UniProt Q12464 1-471); assay: SEC
Rvb2-R350A = Rvb2-R350A (S. cerevisiae, UniProt Q12464 1-471, R350A); assay: SEC
Chain of Rvb2-R350A (Q12464 whole entry R350A): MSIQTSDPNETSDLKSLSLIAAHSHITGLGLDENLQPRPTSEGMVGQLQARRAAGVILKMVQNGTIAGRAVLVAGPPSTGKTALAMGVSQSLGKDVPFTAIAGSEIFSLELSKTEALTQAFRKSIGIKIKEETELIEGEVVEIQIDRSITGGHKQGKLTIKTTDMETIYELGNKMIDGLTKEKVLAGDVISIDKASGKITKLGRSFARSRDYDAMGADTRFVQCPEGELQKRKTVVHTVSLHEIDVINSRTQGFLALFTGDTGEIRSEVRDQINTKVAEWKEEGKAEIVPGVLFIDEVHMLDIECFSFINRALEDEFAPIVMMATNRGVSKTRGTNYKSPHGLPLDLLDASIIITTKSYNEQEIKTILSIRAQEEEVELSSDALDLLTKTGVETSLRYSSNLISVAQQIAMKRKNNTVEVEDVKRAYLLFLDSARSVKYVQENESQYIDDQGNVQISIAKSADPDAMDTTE

Chain of Rvb2 (Q12464 whole entry): as the sequence (Q12464 whole entry R350A) above, with A350R counted along it

Row | Binder | binding result (Rvb2) | binding result (Rvb2-R350A)
1 | B1 | binds | binds
2 | B2 | binds | binds

Source: publication PMC11118528 (bioRxiv, 2024)
